Assay results published in patent publication US20200024330A1.

Columns and labels:
Assay in all cases: cell-based or functional assay
[1] = molecular target: HIV-1 Env of isolate MGRM-Chronic-B-017 (HIV-1)
[2] = molecular target: HIV-1 Env of isolate MGRM-Chronic-B-023 (HIV-1)
[3] = molecular target: HIV-1 Env of isolate MGRM-AE-008 (HIV-1)
[4] = molecular target: HIV-1 Env of isolate MGRM-AG-005 (HIV-1)
[5] = molecular target: HIV-1 Env of isolate MGRM-AG-002 (HIV-1)
[6] = molecular target: HIV-1 Env of isolate MGRM-AE-006 (HIV-1)
[7] = molecular target: HIV-1 92TH021 envelope glycoprotein (Env) on pseudovirus (HIV-1)
[8] = molecular target: HIV-1 Env of isolate MGRM-G-009 (HIV-1)
[9] = molecular target: HIV-1 92UG024 envelope glycoprotein (Env) on pseudovirus (HIV-1)
[10] = molecular target: HIV-1 Env of isolate MGRM-AG-013 (HIV-1)
[11] = molecular target: HIV-1 NL43 envelope glycoprotein (Env) on pseudovirus (HIV-1)
[12] = molecular target: HIV-1 Env of isolate MGRM-AG-011 (HIV-1)
[13] = molecular target: HIV-1 Env of isolate MGRM-AG-003 (HIV-1)
[14] = molecular target: HIV-1 Env of isolate MGRM-AE-004 (HIV-1)
[15] = molecular target: HIV-1 Env of isolate MGRM-G-024 (clade G pseudovirus) (HIV-1)
[16] = molecular target: HIV-1 Env of isolate MGRM-AE-007 (HIV-1)
[17] = molecular target: aMLV envelope (negative control pseudovirus)
[18] = molecular target: HIV-1 Env of isolate MGRM-Chronic-B-012 (HIV-1)
[19] = molecular target: HIV-1 MGRM-C-001 Env (HIV-1)
[20] = molecular target: HIV-1 Env of isolate MGRM-G-001 (HIV-1)
[21] = molecular target: HIV-1 Env of isolate MGRM-Chronic-B-024 (HIV-1)
[22] = molecular target: HIV-1 Env of isolate MGRM-Chronic-B-020 (HIV-1)
[23] = molecular target: HIV-1 Env of isolate MGRM-AG-001 (HIV-1)
[24] = molecular target: HIV-1 Env of isolate MGRM-Chronic-B-011 (HIV-1)
[25] = molecular target: HIV-1 Env of isolate MGRM-G-004 (HIV-1)
[26] = molecular target: HIV-1 Env of isolate MGRM-AG-009 (HIV-1)
[27] = molecular target: HIV-1 Env of isolate MGRM-G-006 (HIV-1)
[28] = molecular target: HIV-1 Env of isolate MGRM-Chronic-B-018 (HIV-1)
[29] = molecular target: HIV-1 Env of isolate MGRM-AG-008 (HIV-1)
[30] = molecular target: HIV-1 Env of isolate MGRM-AG-006 (HIV-1)
[31] = molecular target: HIV-1 92BR020 envelope glycoprotein (Env) on pseudovirus (HIV-1)
[32] = molecular target: HIV-1 Env of isolate MGRM-AE-005 (HIV-1)
[33] = molecular target: HIV-1 92RW020 envelope glycoprotein (Env) on pseudovirus (HIV-1)
[34] = molecular target: HIV-1 Env of isolate MGRM-AG-012 (HIV-1)
[35] = molecular target: HIV-1 Env of isolate JRFL (HIV-1)
[36] = molecular target: HIV-1 Env of isolate MGRM-Chronic-B-010 (HIV-1)
[37] = molecular target: HIV-1 Env of isolate MGRM-G-027 (HIV-1)
[38] = molecular target: HIV-1 Env of isolate MGRM-G-013 (HIV-1)
[39] = molecular target: HIV-1 Env of isolate MGRM-G-019 (HIV-1)
[40] = molecular target: HIV-1 Env of isolate MGRM-D-026 (subtype D), on pseudovirus (HIV-1)
[41] = molecular target: HIV-1 Env of isolate MGRM-G-016 (HIV-1)
[42] = molecular target: HIV-1 Env of isolate MGRM-G-011 (HIV-1)
[43] = molecular target: HIV-1 Env of isolate MGRM-G-017 (HIV-1)
[44] = molecular target: HIV-1 Env of isolate MGRM-G-015 (HIV-1)
[45] = molecular target: HIV-1 Env of isolate MGRM-G-014 (HIV-1)

## b12 (antibody)
[1]
  IC50 (µg/ml), pseudovirus neutralization: 2.59 µg/mL
[2]
  IC50 (µg/ml), pseudovirus neutralization: > 50 µg/mL
[3]
  IC50 (µg/ml), pseudovirus neutralization: > 50 µg/mL
[4]
  IC50 (µg/ml), pseudovirus neutralization: > 50 µg/mL
[5]
  IC50 (µg/ml), pseudovirus neutralization: 0.89 µg/mL
[6]
  IC50 (µg/ml), pseudovirus neutralization: > 50 µg/mL
[7]
  IC90 (pseudovirus neutralization): > 50 µg/mL
[8]
  IC50 (µg/ml), pseudovirus neutralization: > 50 µg/mL
[9]
  IC90 (pseudovirus neutralization): > 50 µg/mL
[10]
  IC50 (µg/ml), pseudovirus neutralization: > 50 µg/mL
[11]
  IC90 (pseudovirus neutralization): 0.28 µg/mL
[12]
  IC50 (µg/ml), pseudovirus neutralization: > 50 µg/mL
[13]
  IC50 (µg/ml), pseudovirus neutralization: > 50 µg/mL
[14]
  IC50 (µg/ml), pseudovirus neutralization: > 50 µg/mL
[15]
  IC50 (µg/ml), pseudovirus neutralization: 2.38 µg/mL
[16]
  IC50 (µg/ml), pseudovirus neutralization: > 50 µg/mL
[17]
  IC50 (µg/ml), pseudovirus neutralization: > 50 µg/mL
[18]
  IC50 (µg/ml), pseudovirus neutralization: > 50 µg/mL
[19]
  IC50: > 50 µg/mL
[20]
  IC50 (µg/ml), pseudovirus neutralization: > 50 µg/mL
[21]
  IC50 (µg/ml), pseudovirus neutralization: > 50 µg/mL
[22]
  IC50 (µg/ml), pseudovirus neutralization: 6.16 µg/mL
[23]
  IC50 (µg/ml), pseudovirus neutralization: 11.9 µg/mL
[24]
  IC50 (µg/ml), pseudovirus neutralization: 2.11 µg/mL
[25]
  IC50 (µg/ml), pseudovirus neutralization: > 50 µg/mL
[26]
  IC50 (µg/ml), pseudovirus neutralization: > 50 µg/mL
[27]
  IC50 (µg/ml), pseudovirus neutralization: > 50 µg/mL
[28]
  IC50 (µg/ml), pseudovirus neutralization: 0.66 µg/mL
[29]
  IC50 (µg/ml), pseudovirus neutralization: > 50 µg/mL
[30]
  IC50 (µg/ml), pseudovirus neutralization: > 50 µg/mL
[31]
  IC90 (pseudovirus neutralization): > 50 µg/mL
[32]
  IC50 (µg/ml), pseudovirus neutralization: 0.63 µg/mL
[33]
  IC90 (pseudovirus neutralization): > 50 µg/mL
[34]
  IC50 (µg/ml), pseudovirus neutralization: 10.4 µg/mL
[35]
  IC50 (µg/ml), pseudovirus neutralization: 0.02 µg/mL
[36]
  IC50 (µg/ml), pseudovirus neutralization: > 50 µg/mL

## 4E10 (antibody)
[1]
  IC50 (µg/ml), pseudovirus neutralization: 2.77 µg/mL
[2]
  IC50 (µg/ml), pseudovirus neutralization: 27.9 µg/mL
[3]
  IC50 (µg/ml), pseudovirus neutralization: 0.94 µg/mL
[4]
  IC50 (µg/ml), pseudovirus neutralization: 2.13 µg/mL
[5]
  IC50 (µg/ml), pseudovirus neutralization: 0.8 µg/mL
[6]
  IC50 (µg/ml), pseudovirus neutralization: 0.23 µg/mL
[7]
  IC90 (pseudovirus neutralization): 23.5 µg/mL
[8]
  IC50 (µg/ml), pseudovirus neutralization: 1.34 µg/mL
[9]
  IC90 (pseudovirus neutralization): 23.7 µg/mL
[10]
  IC50 (µg/ml), pseudovirus neutralization: 2.61 µg/mL
[11]
  IC90 (pseudovirus neutralization): 29.6 µg/mL
[12]
  IC50 (µg/ml), pseudovirus neutralization: 1.36 µg/mL
[13]
  IC50 (µg/ml), pseudovirus neutralization: 0.64 µg/mL
[14]
  IC50 (µg/ml), pseudovirus neutralization: 1.27 µg/mL
[15]
  IC50 (µg/ml), pseudovirus neutralization: 1.57 µg/mL
[16]
  IC50 (µg/ml), pseudovirus neutralization: 0.45 µg/mL
[17]
  IC50 (µg/ml), pseudovirus neutralization: > 50 µg/mL
[18]
  IC50 (µg/ml), pseudovirus neutralization: 48 µg/mL
[19]
  IC50: 5.66 µg/mL
[20]
  IC50 (µg/ml), pseudovirus neutralization: 2.04 µg/mL
[21]
  IC50 (µg/ml), pseudovirus neutralization: 9.19 µg/mL
[22]
  IC50 (µg/ml), pseudovirus neutralization: 2.45 µg/mL
[23]
  IC50 (µg/ml), pseudovirus neutralization: 1.12 µg/mL
[24]
  IC50 (µg/ml), pseudovirus neutralization: 1.07 µg/mL
[25]
  IC50 (µg/ml), pseudovirus neutralization: 1.47 µg/mL
[26]
  IC50 (µg/ml), pseudovirus neutralization: 31.4 µg/mL
[27]
  IC50 (µg/ml), pseudovirus neutralization: 1.23 µg/mL
[28]
  IC50 (µg/ml), pseudovirus neutralization: 23.2 µg/mL
[29]
  IC50 (µg/ml), pseudovirus neutralization: 1.48 µg/mL
[30]
  IC50 (µg/ml), pseudovirus neutralization: 1.76 µg/mL
[31]
  IC90 (pseudovirus neutralization): > 50 µg/mL
[32]
  IC50 (µg/ml), pseudovirus neutralization: 0.47 µg/mL
[33]
  IC90 (pseudovirus neutralization): 36.1 µg/mL
[34]
  IC50 (µg/ml), pseudovirus neutralization: 0.86 µg/mL
[35]
  IC50 (µg/ml), pseudovirus neutralization: 18.9 µg/mL
[36]
  IC50 (µg/ml), pseudovirus neutralization: 1.69 µg/mL

## 5343_B08 (PGT-135) (antibody)
[1]
  IC50: > 50 µg/mL
[37]
  IC50, pseudovirus neutralization: 0.062 µg/mL
[2]
  IC50: 0.329 µg/mL
[38]
  IC50, pseudovirus neutralization: > 50 µg/mL
[8]
  IC50, pseudovirus neutralization: > 50 µg/mL
[39]
  IC50, pseudovirus neutralization: 0.145 µg/mL
[17]
  IC50, pseudovirus neutralization: > 50 µg/mL
[18]
  IC50: 0.166 µg/mL
[40]
  IC50, pseudovirus neutralization: > 50 µg/mL
[20]
  IC50, pseudovirus neutralization: 0.393 µg/mL
[21]
  IC50: > 50 µg/mL
[22]
  IC50: 0.057 µg/mL
[24]
  IC50: > 50 µg/mL
[41]
  IC50, pseudovirus neutralization: > 50 µg/mL
[42]
  IC50, pseudovirus neutralization: > 50 µg/mL
[25]
  IC50, pseudovirus neutralization: > 50 µg/mL
[27]
  IC50, pseudovirus neutralization: > 50 µg/mL
[28]
  IC50: > 50 µg/mL
[43]
  IC50, pseudovirus neutralization: 0.137 µg/mL
[44]
  IC50, pseudovirus neutralization: > 50 µg/mL
[31]
  IC50 (ug/ml), neutralizing activity: 0.104 µg/mL
[45]
  IC50, pseudovirus neutralization: > 50 µg/mL
[33]
  IC50 (ug/ml), neutralizing activity: 0.157 µg/mL
[35]
  IC50: > 50 µg/mL
[36]
  IC50: > 50 µg/mL
